In FireProtDB (doi:10.1073/pnas.0711253105):
“And” between values parts separate entries of the source, which are not always exact repeats. Equal entries are not always repeated.

Conditions: Meleagris gallopavo; pH 8; Thermal; Activity; Tris 20 mM; NaCl 0.4 M; structure 2VT4

Sequence of Beta-1 adrenergic receptor R68S|M90V|V230A|F327A|A334L, P07700 R68S M90V V230A F327A A334L (P07700 whole entry R68S/M90V/V230A/F327A/A334L): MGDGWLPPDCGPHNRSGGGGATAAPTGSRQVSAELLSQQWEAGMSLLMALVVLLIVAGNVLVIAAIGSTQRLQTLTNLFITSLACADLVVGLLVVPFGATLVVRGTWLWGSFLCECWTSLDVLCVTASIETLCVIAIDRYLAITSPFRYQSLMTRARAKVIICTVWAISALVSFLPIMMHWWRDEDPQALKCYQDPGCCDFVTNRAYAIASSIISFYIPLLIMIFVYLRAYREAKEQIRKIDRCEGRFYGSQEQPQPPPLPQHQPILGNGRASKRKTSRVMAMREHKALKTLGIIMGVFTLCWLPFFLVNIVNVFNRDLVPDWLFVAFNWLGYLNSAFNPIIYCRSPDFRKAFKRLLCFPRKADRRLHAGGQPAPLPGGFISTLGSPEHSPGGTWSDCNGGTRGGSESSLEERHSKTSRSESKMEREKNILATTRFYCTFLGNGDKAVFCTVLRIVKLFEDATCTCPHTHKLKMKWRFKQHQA
Sequence of Beta-1 adrenergic receptor G67A|G98A, P07700 G67A G98A (P07700 whole entry G67A/G98A): as the sequence (P07700 whole entry R68S/M90V/V230A/F327A/A334L) above, with G67A, S68R, V90M, G98A, A230V, A327F, L334A counted along it
Sequence of Beta-1 adrenergic receptor Y227A|A234L|A334L, P07700 Y227A A234L A334L (P07700 whole entry Y227A/A234L/A334L): as the sequence (P07700 whole entry R68S/M90V/V230A/F327A/A334L) above, with S68R, V90M, Y227A, A230V, A234L, A327F counted along it
Sequence of Beta-1 adrenergic receptor M90V|I129V, P07700 M90V I129V (P07700 whole entry M90V/I129V): as the sequence (P07700 whole entry R68S/M90V/V230A/F327A/A334L) above, with S68R, I129V, A230V, A327F, L334A counted along it
Sequence of Beta-1 adrenergic receptor G67A|G98A|V230A|D322A, P07700 G67A G98A V230A D322A (P07700 whole entry G67A/G98A/V230A/D322A): as the sequence (P07700 whole entry R68S/M90V/V230A/F327A/A334L) above, with G67A, S68R, V90M, G98A, D322A, A327F, L334A counted along it
Sequence of Beta-1 adrenergic receptor M90V|Y227A|F338M, P07700 M90V Y227A F338M (P07700 whole entry M90V/Y227A/F338M): as the sequence (P07700 whole entry R68S/M90V/V230A/F327A/A334L) above, with S68R, Y227A, A230V, A327F, L334A, F338M counted along it
Sequence of Beta-1 adrenergic receptor G98A|D322A, P07700 G98A D322A (P07700 whole entry G98A/D322A): as the sequence (P07700 whole entry R68S/M90V/V230A/F327A/A334L) above, with S68R, V90M, G98A, A230V, D322A, A327F, L334A counted along it
Sequence of Beta-1 adrenergic receptor R68S|M90V|V230A|A334L, P07700 R68S M90V V230A A334L (P07700 whole entry R68S/M90V/V230A/A334L): as the sequence (P07700 whole entry R68S/M90V/V230A/F327A/A334L) above, with A327F counted along it
Sequence of Beta-1 adrenergic receptor R68S|Y227A|A234L|A282L, P07700 R68S Y227A A234L A282L (P07700 whole entry R68S/Y227A/A234L/A282L): as the sequence (P07700 whole entry R68S/M90V/V230A/F327A/A334L) above, with V90M, Y227A, A230V, A234L, A282L, A327F, L334A counted along it
Sequence of Beta-1 adrenergic receptor R68S|A334L, P07700 R68S A334L (P07700 whole entry R68S/A334L): as the sequence (P07700 whole entry R68S/M90V/V230A/F327A/A334L) above, with V90M, A230V, A327F counted along it
Sequence of Beta-1 adrenergic receptor M90V|F338M, P07700 M90V F338M (P07700 whole entry M90V/F338M): as the sequence (P07700 whole entry R68S/M90V/V230A/F327A/A334L) above, with S68R, A230V, A327F, L334A, F338M counted along it
Sequence of Beta-1 adrenergic receptor R68S|Y227A|A234L|A334L, P07700 R68S Y227A A234L A334L (P07700 whole entry R68S/Y227A/A234L/A334L): as the sequence (P07700 whole entry R68S/M90V/V230A/F327A/A334L) above, with V90M, Y227A, A230V, A234L, A327F counted along it
Sequence of Beta-1 adrenergic receptor R68S|A234L|A334L, P07700 R68S A234L A334L (P07700 whole entry R68S/A234L/A334L): as the sequence (P07700 whole entry R68S/M90V/V230A/F327A/A334L) above, with V90M, A230V, A234L, A327F counted along it
Sequence of Beta-1 adrenergic receptor R68S|M90V|Y227A|V230A|F327A|F338M, P07700 R68S M90V Y227A V230A F327A F338M (P07700 whole entry R68S/M90V/Y227A/V230A/F327A/F338M): as the sequence (P07700 whole entry R68S/M90V/V230A/F327A/A334L) above, with Y227A, L334A, F338M counted along it
Sequence of Beta-1 adrenergic receptor R68S|M90V|Y227A|V230A|F327A|A334L, P07700 R68S M90V Y227A V230A F327A A334L (P07700 whole entry R68S/M90V/Y227A/V230A/F327A/A334L): as the sequence (P07700 whole entry R68S/M90V/V230A/F327A/A334L) above, with Y227A counted along it
Sequence of Beta-1 adrenergic receptor M90V|Y227A, P07700 M90V Y227A (P07700 whole entry M90V/Y227A): as the sequence (P07700 whole entry R68S/M90V/V230A/F327A/A334L) above, with S68R, Y227A, A230V, A327F, L334A counted along it
Sequence of Beta-1 adrenergic receptor G67A|G98A|V230A, P07700 G67A G98A V230A (P07700 whole entry G67A/G98A/V230A): as the sequence (P07700 whole entry R68S/M90V/V230A/F327A/A334L) above, with G67A, S68R, V90M, G98A, A327F, L334A counted along it

Substance	Tm	change of melting temperature, mutant - wild type (higher = more stable)
Beta-1 adrenergic receptor R68S|M90V|V230A|A334L, P07700 R68S M90V V230A A334L	46.9 °C	15.2 °C
Beta-1 adrenergic receptor R68S|M90V|V230A|F327A|A334L, P07700 R68S M90V V230A F327A A334L	47.3 °C and 48.4 °C	15.6 °C and 16.7 °C
Beta-1 adrenergic receptor G67A|G98A, P07700 G67A G98A	35.5 °C	3.8 °C
Beta-1 adrenergic receptor R68S|A334L, P07700 R68S A334L	39.1 °C	7.4 °C
Beta-1 adrenergic receptor M90V|Y227A, P07700 M90V Y227A	45.2 °C	13.5 °C
Beta-1 adrenergic receptor M90V|I129V, P07700 M90V I129V	40 °C	8.3 °C
Beta-1 adrenergic receptor G67A|G98A|V230A, P07700 G67A G98A V230A	38 °C	6.3 °C
Beta-1 adrenergic receptor M90V|Y227A|F338M, P07700 M90V Y227A F338M	45.2 °C	13.5 °C
Beta-1 adrenergic receptor M90V|F338M, P07700 M90V F338M	43 °C	11.3 °C
Beta-1 adrenergic receptor Y227A|A234L|A334L, P07700 Y227A A234L A334L	41.6 °C	9.9 °C
Beta-1 adrenergic receptor R68S|M90V|Y227A|V230A|F327A|F338M, P07700 R68S M90V Y227A V230A F327A F338M	49 °C	17.3 °C
Beta-1 adrenergic receptor R68S|Y227A|A234L|A282L, P07700 R68S Y227A A234L A282L	41.6 °C	9.9 °C
Beta-1 adrenergic receptor R68S|Y227A|A234L|A334L, P07700 R68S Y227A A234L A334L	43.7 °C	12 °C
Beta-1 adrenergic receptor R68S|A234L|A334L, P07700 R68S A234L A334L	41.9 °C	10.2 °C
Beta-1 adrenergic receptor G98A|D322A, P07700 G98A D322A	35 °C	3.3 °C
Beta-1 adrenergic receptor G67A|G98A|V230A|D322A, P07700 G67A G98A V230A D322A	40.9 °C	9.2 °C
Beta-1 adrenergic receptor R68S|M90V|Y227A|V230A|F327A|A334L, P07700 R68S M90V Y227A V230A F327A A334L	48.2 °C	16.5 °C
